Measurements from the supplement of paper PMC7877785.
± gives the uncertainty stated by the source.

Assay: self-splicing fitness, log relative to wild type (ln ratio); higher = more splicing; Tetrahymena group I intron in knt gene, E. coli kanamycin selection, DiMSum; sequences stand for … in CUCUCU…GGAGGGAAAAGUUAUCAGGCAUGCACCUGGUAGCUAGUCUUUAAACCAAUAGAUUGCAUCGGUUUAAAAGGCAAGACCGUCAAAUUGCGGGAAAGGGGUCAACAGCCGUUCAGUACCAAGUCUCAGGGGAAACUUUGAGAUGGCCUUGCAAAGGGUAUGGUAAUAAGCUGACGGACAUGGUCCUAACCACGCAGCCAAGUCCUAAGUCAACAGAUCUUCUGUUGAUAUGGAUGCAGUUCACAGACUAAAUGUCGGUCGGGGAAGAUGUAUUCUUCUCAUAAGAUAUAGUCGGACCUCUCCUUAAUGGGAGCUAGCGGAUGAAGUGAUGCAACACUGGAGCCGCUGGGAACUAAUUUGUAUGCGAAAGUAUAUUGAUUAGUUUUGGAGUACUCGUGGUCG
Outline: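 Fitness was computed with DiMSum as the error-weighted combination of replicate fold changes, kanamycin versus none, each normalised to wild type. The library randomised all eight intron nucleotides of the P1ex region, with the intron placed in the knt kanamycin-resistance gene on pET-22b(+) in E. coli BL21(DE3). Six replicate transformations were grown overnight at 37°C or 30°C on LB agar with or without 25 μg/mL kanamycin, plus 100 μg/mL carbenicillin, 50 μM IPTG and 0.2% rhamnose. Pooled colonies were amplicon-sequenced on an Illumina HiSeq 2500.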

Sequence	self-splicing fitness (ln) (30 °C)	self-splicing fitness (ln) (37 °C)
UCAUAGCAAUAUUACGUCCC	-2.19 ± 0.49	–
UCAUAGCAAUAUUACGUCGC	-2.62 ± 0.3	-2.78 ± 0.34
UCCAAGCAAUAUUACGAAAG	-2.45 ± 0.19	-3.23 ± 0.35
UCCAAGCAAUAUUACGACAG	-3.81 ± 0.35	-1.47 ± 0.26
UCCAAGCAAUAUUACGACCA	-1.63 ± 0.16	-0.935 ± 0.17
UCCAAGCAAUAUUACGAUAA	-2.01 ± 0.11	-0.704 ± 0.11
UCCAAGCAAUAUUACGCAAC	-4.2 ± 0.37	-3.04 ± 0.31
UCCAAGCAAUAUUACGCAGC	-2.73 ± 0.21	-2.89 ± 0.32
UCCAAGCAAUAUUACGCCAA	-2.68 ± 0.21	-0.487 ± 0.22
UCCAAGCAAUAUUACGCCGG	-1.53 ± 0.11	-0.578 ± 0.14
UCCAAGCAAUAUUACGCGCA	0.131 ± 0.064	0.306 ± 0.079
UCCAAGCAAUAUUACGCGCU	-2.67 ± 0.21	-1.52 ± 0.23
UCCAAGCAAUAUUACGGAUA	-2.57 ± 0.13	-1.22 ± 0.089
UCCAAGCAAUAUUACGGGAG	-2.57 ± 0.16	-2.9 ± 0.35
UCCAAGCAAUAUUACGGUCG	-2.37 ± 0.097	-0.886 ± 0.099
UCCAAGCAAUAUUACGUAAC	-3.57 ± 0.17	-1.41 ± 0.15
UCCAAGCAAUAUUACGUACA	-0.123 ± 0.1	-0.835 ± 0.12
UCCAAGCAAUAUUACGUUAA	-2.37 ± 0.12	-0.463 ± 0.1
UCCCAGCAAUAUUACGACUC	-3.89 ± 0.25	-1.91 ± 0.24
UCCCAGCAAUAUUACGAGCC	-2.16 ± 0.28	-1.96 ± 0.31
UCCCAGCAAUAUUACGAUAA	-2.32 ± 0.12	-1.85 ± 0.14
UCCCAGCAAUAUUACGAUUU	-3.49 ± 0.11	-1.52 ± 0.097
UCCCAGCAAUAUUACGCAUA	-1.47 ± 0.16	-1.27 ± 0.15
UCCCAGCAAUAUUACGCCUU	-3.44 ± 0.2	-1.28 ± 0.15
UCCCAGCAAUAUUACGCGGA	-2.72 ± 0.17	-1.12 ± 0.12

Sequence	self-splicing fitness (ln) (30 °C)	self-splicing fitness (ln) (37 °C)
UCCCAGCAAUAUUACGCUAA	-1.75 ± 0.11	-0.958 ± 0.091
UCCCAGCAAUAUUACGCUGC	-3.59 ± 0.24	-2.75 ± 0.34
UCCCAGCAAUAUUACGGACC	-3.42 ± 0.27	0.0123 ± 0.17
UCCCAGCAAUAUUACGGAUG	-3.49 ± 0.2	-1.31 ± 0.15
UCCCAGCAAUAUUACGGAUU	-2.66 ± 0.092	-0.582 ± 0.08
UCCCAGCAAUAUUACGGCGC	-1.67 ± 0.091	-0.401 ± 0.14
UCCCAGCAAUAUUACGGCUG	–	-1.42 ± 0.48
UCCCAGCAAUAUUACGGGAC	-2.69 ± 0.17	-2.49 ± 0.3
UCCCAGCAAUAUUACGUAAA	-0.605 ± 0.065	0.00983 ± 0.085
UCCCAGCAAUAUUACGUACC	–	0.327 ± 0.33
UCCCAGCAAUAUUACGUAGA	-0.0439 ± 0.054	0.435 ± 0.073
UCCCAGCAAUAUUACGUAGC	-2.68 ± 0.12	-2.19 ± 0.16
UCCCAGCAAUAUUACGUCAU	-4.04 ± 0.2	-2.09 ± 0.18
UCCCAGCAAUAUUACGUCCC	-3.08 ± 0.25	-0.845 ± 0.26
UCCCAGCAAUAUUACGUCGU	-1.69 ± 0.085	-0.682 ± 0.11
UCCCAGCAAUAUUACGUCUG	-3.05 ± 0.17	-2.85 ± 0.31
UCCCAGCAAUAUUACGUUCU	-3.47 ± 0.21	-2.5 ± 0.22
UCCCAGCAAUAUUACGUUGG	-3.37 ± 0.12	-1.5 ± 0.13
UCCCAGCAAUAUUACGUUGU	-4.06 ± 0.15	-1.97 ± 0.11
UCCCAGCAAUAUUACGUUUA	-2.21 ± 0.12	-1.79 ± 0.13
UCCGAGCAAUAUUACGAAAG	-3.3 ± 0.33	-2.65 ± 0.32
UCCGAGCAAUAUUACGAAUA	-2.95 ± 0.25	–
UCCGAGCAAUAUUACGAAUU	-3.49 ± 0.28	-2.19 ± 0.35
UCCGAGCAAUAUUACGACAA	-2.23 ± 0.46	–
